Bridges are numbered along the chain shown (N, C = ends). Where no end group is shown, it is not given here.
B1: anti-PIVKA-II monoclonal antibody 3C10 (hybridoma-derived) (antibody, V domains shown)
VH: EVQLVESGGDLVKPGGSLKLSCAASGFTFSSYGMSWVRQTPDKRLEWVATISRGGSSTYYPDSVKGRFTISRDNAKNNLYLQMSSLKSEDTAMYYCASLNYGNFFDYWGQGTTLTVSS
VL: DVVMTQTPLSLPVSLGDQASISCRSSQSLVHSNGNTYLHWYLQKPGQSPKLLIYKVSNRFSGVPDRFSGSGSGTDFTLKISRVEAEDLGVYFCSQNRHVPPTFGGGTKLEIKR
notes: Mouse monoclonal from a GANP transgenic C57BL/6 mouse immunized with PIVKA-II 13-27 peptide-KLH; For the Kd by quenching the antibody carried Black Hole Quencher (I.R. 2.3); also called mAb 3C10; clone 3C10
B2: PIVKAII (13-27) peptide, unlabeled (peptide)
peptide: LERECVEETCSYEEA
notes: also called PIVKA-II peptide (13-27)
B3: Gla domain Factor X peptide (sequence 12) (peptide)
peptide: LERECMEETCSYEEA
notes: also called PIVKAII Gla domain (13-27) analog; PIVKAII peptide analog
B4: Gla domain Factor IX peptide (sequence 11) (peptide)
peptide: LERECMEEKCSFEEA
notes: as for B3
B5: Gla domain Factor VII peptide (sequence 13) (peptide)
peptide: LERECKEEQCSFEEA
notes: as for B3
B6: Gla domain Protein C peptide (sequence 14) (peptide)
peptide: LERECIEEICDFEEA
notes: as for B3
B7: Gla domain Protein S peptide (sequence 15) (peptide)
peptide: LERECIEELCNKEEA
notes: as for B3
B8: Gla domain Protein Z peptide (sequence 16) (peptide)
peptide: LEKECYEEICVYEEA
notes: as for B3

Assays:
[1] = molecular target: T1, PIVKA-II antigen (heat-decarboxylated prothrombin) (UniProt P00734 44-622, Gla residues of the Gla domain decarboxylated to glutamic acid by heating dried prothrombin powder at 110 C for 8 hours); assay: FCS displacement of Alexa488-PIVKAII (13-27) from mAb 3C10 by PIVKA-II preparations
T1 construct: Residues 13-27 are counted on the Gla domain
Experimental: Various amounts of PIVKAII from different preparations were added to the antigen-antibody complex. After overnight incubation, FCS measurements were performed on each sample.

[2] = molecular target: T2, Alexa-488 labeled PIVKAII Gla domain peptide (13-27), cyclized (disulfide 5-10 (inferred); also: Alexa Fluor 488 attached via TFP active ester, site not given here); assay: fluorescence quenching (FRET) titration in solution, BHQ-labeled mAb, 0.05 nM Alexa488 peptide
T2 construct: also called Alexa488-PIVKAII (13-27); Alexa488-PIVKAII peptide (13-27 cyc)
T2 peptide: LERECVEETCSYEEA
Experimental: The binding curve was fit with a simple fitting model.
All binding measurements were performed in 10 mM HEPES buffer, pH 7.4, containing 0.15M NaCl, 3 mM EDTA, and 0.005% surfactant P20.

[3] = molecular target: B1; assay: FCS displacement of Alexa488-PIVKAII (13-27) from mAb 3C10, positive control
Experimental: (§1) Then, various PIVKAII Gla domain (13-27) analogs were added to the sample. PIVKAII (13-27) was added as a positive control, and the original sample was used as a negative control. FCS measurements were performed on each sample after overnight incubation.

[4] = molecular target: B1; assay: FCS displacement: 2 nM Alexa488-PIVKAII (13-27) premixed with 10 nM mAb 3C10, analog added, overnight
Experimental: as §1

| Binder | binding result [4] | further results |
| --- | --- | --- |
| B1 |  | binding result [1]: binds; Kd [2]: 0.15 nM |
| B2 |  | binding result [3]: binds |
| B3 | no binding |  |
| B4 | no binding |  |
| B5 | no binding |  |
| B6 | no binding |  |
| B7 | no binding |  |
| B8 | no binding |  |

Reference: US20140024050A1 (published 2014)
